Legend:
Format in all cases: cell-based
[1] = system: human primary fibroblasts; test: Fibroblast collagen type I protein secretion (pro-collagen type I C-peptide ELISA); conditions: 0.03%; 48 hours; compared with untreated cells or cells treated with retinol; FIG. 1
Experimental: A series of in vitro experiments were conducted to assess the effects of a truncated human type 21 collagen on human skin fibroblasts and keratinocytes. In a first experiment, human primary fibroblasts were evaluated for collagen type I protein secretion. Fibroblasts were cultured with 0.03% of a polypeptide according to SEQ ID NO: 16 for 48 hours. Culture supernatants were analyzed by Enzyme Linked Immunosorbent Assay (ELISA) for pro-collagen type I C-peptide, which is a readout for total secreted collagen type I protein.

[2] = system: Human full-thickness skin equivalents (MatTek Epiderm FT co-culture tissue models); test: Type III collagen production in human full-thickness skin equivalents (pro-collagen type III N-peptide ELISA); conditions: polypeptide 0.1% w/w, ascorbic acid 2% w/w, FIG. 21
[3] = system: human primary keratinocytes; test: MTT viability of UVB-irradiated keratinocytes, pre- and post-irradiation treatment; conditions: 0.1% for 24 hours before and 24 hours after 40 mJ/cm^2 UVB; compared with UVB-irradiated keratinocytes without treatment; FIG. 5
Experimental: To further assess the effects of treatment with a polypeptide of SEQ ID NO: 16 on UVB-irradiated keratinocytes, an experiment was performed with pre- and post-irradiation treatment. Human primary keratinocytes were pre-treated with 0.1% of a polypeptide of SEQ ID NO: 16 for 24 hours, irradiated with 40 mJ/cm^2 UVB light, and then treated again with 0.1% of a polypeptide of SEQ ID NO: 16 for an additional 24 hours. Cell viability was evaluated using the MTT metabolic colorimetric assay.

B1: SEQ ID NO: 16: truncated human collagen type 21 alpha 1 without the DsbA secretion tag, recombinantly expressed in E. coli (protein)
chain: AGFPGLPGPAGEPGRHGKDGLMGSPGFKGEAGSPGAPGQDGTRGEPGIPGFPGNRGLMGQKGEIGPPGQQGKKGAPGMPGLMGSNGSPGQPGTPGSKGSKGEPGIQGMPGASGLKGEPGATGSPGEPGYMGLPGIQGKKGDKGNQGEKGIQGQKGENGRQGIPGQQGIQGHHGAKGERGEKGEPGVR
**Q.** For B1, which “secreted collagen type I (pro-collagen type I C-peptide)” value [1] is on record?
**A.** The value was “higher levels”.

**Q.** What about the “increase of type III collagen production relative to untreated control” value ([2]; day 2 supernatant) of the same molecule?
**A.** The value was 82%.

**Q.** And the “production of type III collagen as compared to untreated cells” value ([2]; each agent alone, day 2, retinol (10, unit not given), hyaluronic acid 0.1% w/w)?
**A.** The value was “increased production”.

**Q.** And the “cell viability (MTT)” value [3]?
**A.** Its value is “higher cell viability”.
